Reference: PMC9482650, “Quantitative fragmentomics allow affinity mapping of interactomes” (Nature Communications, 2022)

T1: PARD3B_1, Q8TEW8
T1 sequence (Q8TEW8 196-299, limits assumed, looked up): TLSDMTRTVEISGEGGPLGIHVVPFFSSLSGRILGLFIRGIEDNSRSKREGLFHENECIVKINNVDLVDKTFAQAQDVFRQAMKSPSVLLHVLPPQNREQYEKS

T2: SNTG2, Q9NY99
T2 sequence (Q9NY99 68-166, limits assumed, looked up): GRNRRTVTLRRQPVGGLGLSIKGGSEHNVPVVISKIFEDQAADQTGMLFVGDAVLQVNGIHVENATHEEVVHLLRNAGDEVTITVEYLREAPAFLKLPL

T3: PTPN13_1, Q12923
T3 sequence (Q12923 1088-1188, limits assumed, looked up): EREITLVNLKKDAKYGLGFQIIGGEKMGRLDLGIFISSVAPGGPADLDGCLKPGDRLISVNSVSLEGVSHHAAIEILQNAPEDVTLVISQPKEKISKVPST

T4: LNX2_2, Q8N448
T4 sequence (Q8N448 334-432, limits assumed, looked up): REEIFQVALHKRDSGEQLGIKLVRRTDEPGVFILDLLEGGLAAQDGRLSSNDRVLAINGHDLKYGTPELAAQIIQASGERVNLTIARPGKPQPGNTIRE

T5: GRIP1_4, Q9Y3R0
T5 sequence (Q9Y3R0 467-571, limits assumed, looked up): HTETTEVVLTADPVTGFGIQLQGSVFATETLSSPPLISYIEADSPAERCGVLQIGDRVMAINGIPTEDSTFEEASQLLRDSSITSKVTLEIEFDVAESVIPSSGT

T6: PDZD7_3, Q9H5P4
T6 sequence (Q9H5P4 857-944, limits assumed, looked up): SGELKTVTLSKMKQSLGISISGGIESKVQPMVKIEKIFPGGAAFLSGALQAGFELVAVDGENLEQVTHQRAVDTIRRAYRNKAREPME

T7: MPP2, Q14168
T7 sequence (Q14168 180-250, limits assumed, looked up): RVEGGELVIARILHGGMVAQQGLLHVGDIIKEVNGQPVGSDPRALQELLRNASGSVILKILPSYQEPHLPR

T8: DLG3_3, Q92796
T8 sequence (Q92796 374-475, limits assumed, looked up): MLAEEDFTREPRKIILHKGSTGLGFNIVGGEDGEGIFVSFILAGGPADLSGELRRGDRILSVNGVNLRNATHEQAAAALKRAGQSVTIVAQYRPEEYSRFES

T9: DFNB31_1, Q9P202
T9 sequence (Q9P202 135-233, limits assumed, looked up): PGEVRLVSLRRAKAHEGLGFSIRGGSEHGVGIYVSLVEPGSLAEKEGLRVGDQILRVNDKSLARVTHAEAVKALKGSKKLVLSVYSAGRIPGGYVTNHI

T10: SIPA1L2, Q9P2F8
T10 sequence (Q9P2F8 945-1036, limits assumed, looked up): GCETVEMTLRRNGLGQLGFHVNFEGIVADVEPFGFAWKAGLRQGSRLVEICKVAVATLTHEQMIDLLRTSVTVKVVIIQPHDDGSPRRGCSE

T11: SHANK1, Q9Y566
T11 sequence (Q9Y566 658-767, limits assumed, looked up): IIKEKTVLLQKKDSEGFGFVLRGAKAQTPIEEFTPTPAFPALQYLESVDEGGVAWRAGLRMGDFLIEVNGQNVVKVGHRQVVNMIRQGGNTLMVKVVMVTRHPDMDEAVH


Legend:
Test in all cases: holdup assay
Design in all cases: key: below the threshold = too weak to quantify, mostly under pKd 3.1 to 4
Settings in all cases: plain residues with an end cap or a label only (N-terminal biotin on a linker: ado-ado)
ARHGEF12, Q9NZN5-2 = biological target: ARHGEF12, Q9NZN5-2
Chain of ARHGEF12, Q9NZN5-2 (Q9NZN5 other isoform, or with tags, fused parts or gaps): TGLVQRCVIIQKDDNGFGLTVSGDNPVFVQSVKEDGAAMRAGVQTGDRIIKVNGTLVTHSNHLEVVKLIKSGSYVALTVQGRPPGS

PARD3B_1, Q8TEW8 = biological target: T1, PARD3B_1, Q8TEW8
SNTG2, Q9NY99 = biological target: T2, SNTG2, Q9NY99
PTPN13_1, Q12923 = biological target: T3, PTPN13_1, Q12923
LNX1_1, Q8TBB1 = biological target: LNX1_1, Q8TBB1
Chain of LNX1_1, Q8TBB1 (Q8TBB1 261-371): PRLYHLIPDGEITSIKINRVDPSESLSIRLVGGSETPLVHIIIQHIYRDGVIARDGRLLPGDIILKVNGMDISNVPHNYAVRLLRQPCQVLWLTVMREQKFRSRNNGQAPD

LNX2_2, Q8N448 = biological target: T4, LNX2_2, Q8N448
SCRIB_3, Q14160 = biological target: SCRIB_3, Q14160
Chain of SCRIB_3, Q14160 (Q14160 999-1103): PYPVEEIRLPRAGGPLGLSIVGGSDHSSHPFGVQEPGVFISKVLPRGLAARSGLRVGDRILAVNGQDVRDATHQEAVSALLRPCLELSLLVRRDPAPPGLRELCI

MAGI1_1, Q96QZ7 = biological target: MAGI1_1, Q96QZ7
Chain of MAGI1_1, Q96QZ7 (Q96QZ7 1-106): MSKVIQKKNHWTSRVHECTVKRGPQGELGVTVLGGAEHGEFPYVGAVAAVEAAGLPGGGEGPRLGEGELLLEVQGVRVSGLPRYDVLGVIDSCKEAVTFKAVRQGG

NHERF4_2, Q86UT5 = biological target: NHERF4_2, Q86UT5
Chain of NHERF4_2, Q86UT5 (Q86UT5 220-308): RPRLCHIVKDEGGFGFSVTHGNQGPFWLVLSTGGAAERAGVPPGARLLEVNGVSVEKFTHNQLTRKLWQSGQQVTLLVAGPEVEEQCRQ

NHERF4_1, Q86UT5-2 = biological target: NHERF4_1, Q86UT5-2
Chain of NHERF4_1, Q86UT5-2 (Q86UT5 other isoform, or with tags, fused parts or gaps): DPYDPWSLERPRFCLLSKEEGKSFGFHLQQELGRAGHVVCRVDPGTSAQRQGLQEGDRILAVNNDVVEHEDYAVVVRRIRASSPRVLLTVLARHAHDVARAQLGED

LDB3, O75112 = biological target: LDB3, O75112
Chain of LDB3, O75112 (O75112 1-94): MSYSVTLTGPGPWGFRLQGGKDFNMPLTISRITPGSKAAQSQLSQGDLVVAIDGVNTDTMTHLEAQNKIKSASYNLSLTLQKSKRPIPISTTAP

CASK, O14936 = biological target: CASK, O14936
Chain of CASK, O14936 (O14936 487-570): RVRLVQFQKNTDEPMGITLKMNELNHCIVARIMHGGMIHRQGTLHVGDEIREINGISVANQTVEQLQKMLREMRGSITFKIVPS

MAGI2_6, Q86UL8 = biological target: MAGI2_6, Q86UL8
Chain of MAGI2_6, Q86UL8 (Q86UL8 1141-1229): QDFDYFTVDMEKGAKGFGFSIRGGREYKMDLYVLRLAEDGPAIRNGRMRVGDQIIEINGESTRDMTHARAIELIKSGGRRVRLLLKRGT

GRIP1_4, Q9Y3R0 = biological target: T5, GRIP1_4, Q9Y3R0
Inadl_9, Q8NI35 = biological target: Inadl_9, Q8NI35
Chain of Inadl_9, Q8NI35 (Q8NI35 1530-1615): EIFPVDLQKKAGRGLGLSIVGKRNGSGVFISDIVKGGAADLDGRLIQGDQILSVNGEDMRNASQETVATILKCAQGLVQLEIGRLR

FRMPD4, Q14CM0 = biological target: FRMPD4, Q14CM0
Chain of FRMPD4, Q14CM0 (Q14CM0 67-160): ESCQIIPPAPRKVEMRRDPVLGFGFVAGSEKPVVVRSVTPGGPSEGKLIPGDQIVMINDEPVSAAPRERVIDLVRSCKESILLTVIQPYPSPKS

IL16_1, Q14005 = biological target: IL16_1, Q14005
Chain of IL16_1, Q14005 (Q14005 210-306): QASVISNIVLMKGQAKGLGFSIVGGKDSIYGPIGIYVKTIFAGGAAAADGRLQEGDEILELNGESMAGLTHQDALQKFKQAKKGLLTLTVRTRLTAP

NHERF2_2, Q15599 = biological target: NHERF2_2, Q15599
Chain of NHERF2_2, Q15599 (Q15599 142-238): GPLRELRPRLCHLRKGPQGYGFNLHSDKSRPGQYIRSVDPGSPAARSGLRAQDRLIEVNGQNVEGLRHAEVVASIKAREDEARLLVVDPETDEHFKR

PDZD7_3, Q9H5P4 = biological target: T6, PDZD7_3, Q9H5P4
MPP2, Q14168 = biological target: T7, MPP2, Q14168
DLG3_3, Q92796 = biological target: T8, DLG3_3, Q92796
GRID2IP_2, A4D2P6 = biological target: GRID2IP_2, A4D2P6
Chain of GRID2IP_2, A4D2P6 (A4D2P6 272-370): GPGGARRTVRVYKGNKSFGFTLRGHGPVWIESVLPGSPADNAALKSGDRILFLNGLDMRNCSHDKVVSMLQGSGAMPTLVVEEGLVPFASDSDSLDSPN

DFNB31_1, Q9P202 = biological target: T9, DFNB31_1, Q9P202
SIPA1L2, Q9P2F8 = biological target: T10, SIPA1L2, Q9P2F8
SHANK1, Q9Y566 = biological target: T11, SHANK1, Q9Y566
GRASP, Q7Z6J2 = biological target: GRASP, Q7Z6J2
Chain of GRASP, Q7Z6J2 (Q7Z6J2 96-193): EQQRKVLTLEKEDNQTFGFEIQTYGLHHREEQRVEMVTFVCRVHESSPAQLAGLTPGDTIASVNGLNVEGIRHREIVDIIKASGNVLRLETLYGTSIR

Binder | pKd (ARHGEF12, Q9NZN5-2) | pKd (PARD3B_1, Q8TEW8) | pKd (SNTG2, Q9NY99) | pKd (PTPN13_1, Q12923) | pKd (LNX1_1, Q8TBB1) | pKd (LNX2_2, Q8N448) | pKd (SCRIB_3, Q14160) | pKd (MAGI1_1, Q96QZ7) | pKd (NHERF4_2, Q86UT5) | pKd (NHERF4_1, Q86UT5-2) | pKd (LDB3, O75112) | pKd (CASK, O14936) | pKd (MAGI2_6, Q86UL8) | pKd (GRIP1_4, Q9Y3R0) | pKd (Inadl_9, Q8NI35) | pKd (FRMPD4, Q14CM0) | pKd (IL16_1, Q14005) | pKd (NHERF2_2, Q15599) | pKd (PDZD7_3, Q9H5P4) | pKd (MPP2, Q14168) | other results
NHSSSPETTA [TRMT13, Q9NUP7] | below the threshold | below the threshold | below the threshold | below the threshold | below the threshold | below the threshold | below the threshold | below the threshold | below the threshold | below the threshold | below the threshold | below the threshold | below the threshold | below the threshold | below the threshold | below the threshold | below the threshold | below the threshold | below the threshold | below the threshold | pKd (DLG3_3, Q92796): below the threshold; pKd (GRID2IP_2, A4D2P6): below the threshold; pKd (DFNB31_1, Q9P202): below the threshold; pKd (SIPA1L2, Q9P2F8): below the threshold; pKd (SHANK1, Q9Y566): below the threshold; pKd (GRASP, Q7Z6J2): below the threshold
SAKVRTVTSV [RASL11B, Q9BPW5] | 4.68 | below the threshold | 3.6 | below the threshold | 4.04 | 4.9 | 4.33 | 3.52 | below the threshold | 3.77 | below the threshold | below the threshold | 3.85 | below the threshold | below the threshold | below the threshold | below the threshold | below the threshold | 4.68 | below the threshold | pKd (DLG3_3, Q92796): 4.89; pKd (GRID2IP_2, A4D2P6): 4.2; pKd (DFNB31_1, Q9P202): 3.77; pKd (SIPA1L2, Q9P2F8): below the threshold; pKd (SHANK1, Q9Y566): below the threshold; pKd (GRASP, Q7Z6J2): 4.54
DTTVPESEDL [MYOZ2, Q9NPC6] | below the threshold | below the threshold | below the threshold | below the threshold | below the threshold | below the threshold | below the threshold | below the threshold | below the threshold | 3.92 | 5.26 | below the threshold | 4.11 | below the threshold | below the threshold | 3.66 | below the threshold | 4.27 | below the threshold | below the threshold | pKd (DLG3_3, Q92796): below the threshold; pKd (GRID2IP_2, A4D2P6): below the threshold; pKd (DFNB31_1, Q9P202): below the threshold; pKd (SIPA1L2, Q9P2F8): below the threshold; pKd (SHANK1, Q9Y566): below the threshold; pKd (GRASP, Q7Z6J2): below the threshold
PDGQCTVTEV [RNF146, Q9NTX7] | 4.77 | below the threshold | 3.98 | below the threshold | 4.12 | 5.08 | 4.72 | below the threshold | 3.59 | 3.89 | below the threshold | below the threshold | 4.71 | below the threshold | 3.72 | below the threshold | 4.17 | 3.89 | 5.09 | below the threshold | pKd (DLG3_3, Q92796): below the threshold; pKd (GRID2IP_2, A4D2P6): 4.17; pKd (DFNB31_1, Q9P202): 3.9; pKd (SIPA1L2, Q9P2F8): below the threshold; pKd (SHANK1, Q9Y566): below the threshold; pKd (GRASP, Q7Z6J2): 4.7
